Data on one molecule can be found in patent publication US20260159566A1 (US Dept. of Health and Human Services, published 2026).

Like-named read-outs stand apart in the source and are kept apart here.

Assay [1] concerns the target T1, B-cell Maturation Antigen (BCMA) (human, UniProt Q02223 1-184).
T1 sequence: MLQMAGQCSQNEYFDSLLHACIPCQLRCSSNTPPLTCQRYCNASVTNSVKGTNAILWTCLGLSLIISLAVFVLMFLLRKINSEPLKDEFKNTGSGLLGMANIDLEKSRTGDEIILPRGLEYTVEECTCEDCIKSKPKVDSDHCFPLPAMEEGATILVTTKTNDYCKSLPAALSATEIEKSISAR
As to the kind of experiment: cell-based or functional assay.

For assay [2], the target named is T2, BCMA-Fc protein labeled with phycoerythrin (Homo sapiens (Human), UniProt Q02223 1-54, labeled with phycoerythrin).
T2 construct: Staining reagent; also called BCMA-Fc-PE reagent; BCMA-Fc protein reagent; not shown: Fc part
T2 sequence: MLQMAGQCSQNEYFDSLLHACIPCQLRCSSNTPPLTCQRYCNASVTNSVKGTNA
The assay can be described thus: flow cytometry, BCMA-Fc-PE staining of CAR-transduced T cells. The method, then: (§1) With reference to Table 2, cultured T cells were transduced with the indicated CARs and cultured overnight with the indicated target cells (top row). After the overnight incubation, a standard ELISA assay was performed on the culture supernatant. BCMA-K562 is BCMA⁺. All other targets are BCMA-negative. The percentage of T cells expressing the indicated CAR was determined by staining with a BCMA-Fc-PE reagent followed by flow cytometry. The % CAR⁺ equals the percentage of CD3⁺ cells transduced with each CAR that stained with the BCMA-Fc-PE reagent minus the percentage of untransduced CD3⁺ lymphocytes that stained with the BCMA-Fc-PE reagent. Except for the % CAR⁺ column, all numbers are pg/mL of interferon-gamma.

Assay [3] addresses T2, BCMA-Fc protein labeled with …. The assay is described as above. The method, then: as §1
The source holds these as a separate data set.

For assay [4], the target named is T1, B-cell Maturation Antigen (BCMA). The assay can be described thus: cell-based or functional assay. The source holds these as a separate data set.

B1: FHVH33-CD828Z (other)
chain: EVQLLESGGGLVQPGGSLRLSCAASGFTFSSYAMSWVRQAPGKGLEWVSSISGSGDYIYYADSVKGRFTISRDISKNTLYLQMNSLRAEDTAVYYCAKEGTGANSSLADYRGQGTLVTVSSFVPVFLPAKPTTTPAPRPPTPAPTIASQPLSLRPEACRPAAGGAVHTRGLDFACDIYIWAPLAGTCGVLLLSLVITLYCNHRNRSKRSRLLHSDYMNMTPRRPGPTRKHYQPYAPPRDFAAYRSRVKFSRSADAPAYQQGQNQLYNELNLGRREEYDVLDKRRGRDPEMGGKPRRKNPQEGLYNELQKDKMAEAYSEIGMKGERRRGKGHDGLYQGLSTATKDTYDALHMQALPPR
notes: Chimeric antigen receptor on transduced primary human T cells; also called FHVH33 CAR
Regarding B1, in assay [1], the “Tumor-necrosis factor-alpha ELISA, T cells cultured overnight with BCMA-K562 cells” value amounted to 2160 pg/mL and the “Tumor-necrosis factor-alpha ELISA, T cells cultured overnight with RPMI-8226 cells” value came out at 210 pg/mL. For the same molecule, in assay [2], the “% CAR+ (percentage of CD3+ cells stained with BCMA-Fc-PE minus untransduced)” value was found to be 60.5%. In assay [3], the “% CAR+ (percentage of CD3+ cells stained with BCMA-Fc-PE minus untransduced)” value was determined as 60.5%. Moreover, in assay [4], the “Interferon-gamma ELISA, T cells cultured overnight with BCMA-K562 cells” value is 31300 pg/mL and the “Interferon-gamma ELISA, T cells cultured overnight with RPMI-8226 cells” value amounted to 4060 pg/mL.
